Assay [1] concerns the target BRCA1 activation domain (amino acids 1293-1863) fused to the Gal4 DNA-binding domain (human, UniProt P04386 1-147; P38398 1293-1863). Description: cell-based or functional assay.
The target in the next assay is T1, HA-CtIP (59-320) (human, UniProt Q99708 59-320).
T1 construct: range 59-320
In words: co-immunoprecipitation (anti-Flag) / anti-HA western blot, transfected 293T cells. On the procedure:
(§1) FIG. 7: Two regions within CtIP specifically interact with LMO4. A, Schematic representation of wild-type CtIP and deletion mutant constructs that were tested for interaction with LMO4 in mammalian cells. The region that associates with BRCA1 and two putative leucine zipper (LZ) domains are indicated. A summary of each mutant's ability to interact with LMO4 is shown. […] Lysates were prepared and proteins immunoprecipitated using anti-Flag monoclonal antibody (F) or control isotype-matched (C) monoclonal antibody. After SDS-PAGE electrophoresis, western blotting was performed using α-HA antibody, specific for CtIP protein. Western blot analysis confirmed expression of Flag-LMO4 and CtIP mutant proteins (lower panels).
(§2) Cell extracts (0.5 ml) were prepared in whole cell lysis buffer (150 mM NaCl, 5 mM EDTA, 50 mM Tris pH7.5, 1% Nonidet P-40, 1 mM DTT) containing protease inhibitors (1 mM phenylmethylsulfonyl fluoride, 1 μg/ml leupeptin, 1 μg/ml pepstatin, 1 μg/ml aprotinin) and normalised for protein concentration, as determined by Bradford analysis (BioRad). Proteins were immunoprecipitated with either anti-Flag M2 (Sigma) or anti-myc 9E10 and protein G sepharose (Amersham Pharmacia Biotech.), and separated by SDS-PAGE (Novex). […]
In general terms: A western blot detects proteins with antibodies after separation by electrophoresis.

The next assay has as its target HA-CtIP (281-620) (human, UniProt Q99708 281-620). The assay is described as above. As for the experimental part:
as §1, §2

In assay [2] the target is T2, endogenous BRCA1 of human HBL100 breast epithelial cells (human, UniProt P38398 1-1863).
T2 construct: mature; also called native BRCA1; BRCA1 (220 kD)
T2 sequence (P38398 whole entry): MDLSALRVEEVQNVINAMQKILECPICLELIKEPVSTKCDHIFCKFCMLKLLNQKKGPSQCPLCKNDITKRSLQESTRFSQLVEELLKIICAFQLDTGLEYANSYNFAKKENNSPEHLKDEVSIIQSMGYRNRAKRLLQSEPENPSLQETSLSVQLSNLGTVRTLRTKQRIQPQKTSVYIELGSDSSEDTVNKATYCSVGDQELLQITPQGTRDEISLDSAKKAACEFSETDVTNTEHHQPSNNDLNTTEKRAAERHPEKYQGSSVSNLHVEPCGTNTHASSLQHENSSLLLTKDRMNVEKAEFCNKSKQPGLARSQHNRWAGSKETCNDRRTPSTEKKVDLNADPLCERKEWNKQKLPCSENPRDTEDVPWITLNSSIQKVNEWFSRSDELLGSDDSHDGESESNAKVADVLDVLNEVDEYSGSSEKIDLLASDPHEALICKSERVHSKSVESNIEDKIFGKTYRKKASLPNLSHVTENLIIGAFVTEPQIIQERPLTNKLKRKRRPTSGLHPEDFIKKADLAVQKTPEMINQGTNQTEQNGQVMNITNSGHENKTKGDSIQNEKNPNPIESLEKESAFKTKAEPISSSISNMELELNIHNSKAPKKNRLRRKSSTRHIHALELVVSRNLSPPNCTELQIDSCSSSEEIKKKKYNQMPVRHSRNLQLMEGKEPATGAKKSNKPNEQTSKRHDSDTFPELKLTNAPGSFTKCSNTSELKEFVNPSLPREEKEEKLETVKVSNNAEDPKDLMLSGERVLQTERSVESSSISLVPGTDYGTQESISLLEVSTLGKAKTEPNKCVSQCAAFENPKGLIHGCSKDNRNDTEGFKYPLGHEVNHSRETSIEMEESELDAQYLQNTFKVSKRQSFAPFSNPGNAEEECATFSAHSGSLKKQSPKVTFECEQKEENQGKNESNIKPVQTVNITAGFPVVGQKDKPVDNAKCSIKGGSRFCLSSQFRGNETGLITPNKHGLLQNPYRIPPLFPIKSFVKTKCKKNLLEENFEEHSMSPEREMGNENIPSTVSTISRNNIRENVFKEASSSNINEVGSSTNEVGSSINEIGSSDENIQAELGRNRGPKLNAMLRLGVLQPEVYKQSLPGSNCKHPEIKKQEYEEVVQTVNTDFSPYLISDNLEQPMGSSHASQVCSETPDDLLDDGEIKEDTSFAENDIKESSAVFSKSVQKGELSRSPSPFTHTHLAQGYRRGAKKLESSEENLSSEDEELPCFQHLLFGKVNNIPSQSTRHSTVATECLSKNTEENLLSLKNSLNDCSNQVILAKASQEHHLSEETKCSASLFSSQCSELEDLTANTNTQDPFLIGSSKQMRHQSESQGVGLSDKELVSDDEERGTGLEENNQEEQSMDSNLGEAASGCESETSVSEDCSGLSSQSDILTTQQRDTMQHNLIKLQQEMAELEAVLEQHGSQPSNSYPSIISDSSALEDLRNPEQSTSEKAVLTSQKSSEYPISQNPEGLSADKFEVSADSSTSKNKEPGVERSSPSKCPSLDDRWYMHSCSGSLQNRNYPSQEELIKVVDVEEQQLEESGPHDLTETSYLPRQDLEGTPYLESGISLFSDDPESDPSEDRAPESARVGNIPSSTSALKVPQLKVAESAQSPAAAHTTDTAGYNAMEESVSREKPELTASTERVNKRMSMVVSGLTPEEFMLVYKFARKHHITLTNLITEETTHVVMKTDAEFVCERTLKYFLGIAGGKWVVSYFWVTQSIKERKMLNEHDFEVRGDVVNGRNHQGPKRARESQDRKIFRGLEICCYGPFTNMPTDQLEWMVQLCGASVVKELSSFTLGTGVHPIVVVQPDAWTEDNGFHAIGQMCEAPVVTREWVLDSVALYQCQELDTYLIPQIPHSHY
Description: immunoprecipitation of HBL100 nuclear lysates with rat anti-LMO4 monoclonal / anti-BRCA1 western blot (FIG. 9B). From the text:
Nuclear lysates were immunoprecipitated with a rat anti-LMO4 monoclonal (lane 2) or control antibody (lane 3), then immunoblotted with anti-BRCA1 (upper panel) or anti-CtIP (middle panel) monoclonal antibody. The immunoprecipitate was divided between two SDS-polyacrylamide gels, one of which underwent extended electrophoresis for detection of BRCA1 (220 kD) while the other was immunoblotted with anti-CtIP antibody. As a control, immunoprecipitate was also blotted with anti-LMO4 monoclonal antibody (lower panel). Lysate from HBL100 cells was loaded in an adjacent lane to provide a size control for the respective proteins (lane 1), indicated by arrows. C, Interaction between LMO4, CtIP, BRCA1 and Ldb1 in mammalian cells. […] Western blot analysis confirmed high level expression of individual proteins in these transfectants (lane 1).
For detection of endogenous proteins, nuclear extracts from human HBL100 cells were prepared (Watters, D., Khanna, K. K., Beamish, H., Birrell, G., Spring, K., Kedar, P., Gatei, M., Stenzel, D., Hobson, K., Kozlov, S., Zhang, N., Farrell, A., Ramsay, J., Gatti, R., and Lavin, M. (1997) Oncogene 14(16), 1911-21). Proteins were immunoprecipitated with either anti-LMO4 rabbit antisera or a rat anti-LMO4 monoclonal antibody and protein G sepharose, and fractionated by SDS-PAGE. […]

Assay [3] addresses T3, endogenous CtIP of human HBL100 breast epithelial cells (human, UniProt Q99708 1-897).
T3 construct: mature; also called native CtIP
Description: immunoprecipitation of HBL100 nuclear extracts with anti-LMO4 antisera / anti-CtIP western blot (FIG. 6D). As for the experimental part: (§3) A, CtIP associates with LMO4 and LMO2. […] Lysates were prepared and proteins immunoprecipitated with the indicated specific antisera. F, Flag; C, control isotype-matched monoclonal antibody. Immunoblotting was performed with the antibodies indicated under each panel. Lane 4 depicts the reciprocal immunoprecipitation experiment performed using an anti-CtIP antibody. The 25 kD bands in lane 4 represent light chain. Western blot analysis of lysates confirmed expression of CtIP and LMO proteins. Note the different size markers indicated for LMO proteins detected by western analysis using anti-Flag antibody (lane 4). B, The first LIM domain but not the second LIM domain of LMO4 interacts with CtIP. […] Cell extracts were immunoprecipitated with anti-Flag (F) antibody, then immunoblotted with anti-CtIP antisera. Western blot analysis of lysates confirmed expression of CtIP and LIM polypeptides (lower panels). […] Cell extracts were immunoprecipitated with anti-Flag (F) antibody, then immunoblotted with anti-CtIP antibody. Western blot analysis of lysates confirmed expression of CtIP and LIM proteins (lower panels). D, Interaction between endogenous LMO4 and CtIP proteins in HBL100 epithelial cells. Nuclear extracts were immunoprecipitated with pre-immune serum (lane 1) or anti-LMO4 antisera (lane 2), then blotted using anti-CtIP monoclonal antibody. […]

Assay [4] has as its target T4, HA-tagged BRCA1 SZ fragment (residues 1528-1863) (human, UniProt P38398 1528-1863, 35S-methionine-labeled in the in vitro binding assay).
T4 construct: also called BRCT (SZ) region
In words: in vitro binding of 35S-labeled BRCA1-SZ to GST-LMO4 on glutathione sepharose, SDS-PAGE. As for the experimental part:
FIG. 10: The C-terminal BRCT domains of BRCA1 mediate interaction with LMO4. […] Lysates were immunoprecipitated with anti-Flag (F) or control (C) antibody, then western blotted with anti-HA antibody. B, LMO4 and the BRCT domain interact in vitro. […] Bound proteins were analysed by SDS-PAGE. Arrow depicts the BRCA1-SZ protein. C, LMO4 and the BRCT (SZ) region of BRCA1 interact in yeast Hf7c cells. Yeast cells were cotransformed with the indicated expression vectors and plated on media deficient in his, leu and trp. Staining for β-galactosidase activity verified that the His⁺ colonies obtained for LMO4+CtIP and LMO4+BRCA1 (SZ) transformants were also β-Gal⁺. No colonies were obtained for Hf7c cells transformed with BRCA1 (SZ)+lamin, BRCA1 (SZ) alone or LMO4 alone.
Binding assays were carried out with a 10 μl aliquot of […] BRCA1-SZ primed lysate and 100 μl (50% slurry of GST-sepharose beads; Amersham Pharmacia) of GST-LMO4 or GST-only protein in GST interaction buffer (150 mM NaCl, 10 mM Tris pH 8, 0.3% NP-40, 1 mM DTT, 0.25% BSA and 0.5 mM phenylmethylsulfonyl fluoride) for 2 hours at 4° C. The beads were subsequently washed twice in GST interaction buffer containing BSA, followed by two more washes in GST interaction buffer without BSA. Finally, the bound BRCA1 C-terminal polypeptide was eluted by boiling the beads for 5 min in 30 μl loading buffer and analysed by SDS-PAGE.

The target of assay [5] is CtIP (residues 45-897), human, from pCMV-HA-ns311 (human, UniProt Q99708 45-897). In words: co-immunoprecipitation (anti-Flag) / anti-CtIP western blot, transfected 293T cells. As for the experimental part:
as §3, with “FIG. 6: Interaction between LM04 and CtIP requires a single LIM domain and appears to be specific for the LMO subclass. A,” for “A,”, “cells.” for “cells. Nuclear extracts were immunoprecipitated with pre-immune serum (lane 1) or anti-LMO4 antisera (lane 2), then blotted using anti-CtIP monoclonal antibody.”

T4 sequence (P38398 1528-1863): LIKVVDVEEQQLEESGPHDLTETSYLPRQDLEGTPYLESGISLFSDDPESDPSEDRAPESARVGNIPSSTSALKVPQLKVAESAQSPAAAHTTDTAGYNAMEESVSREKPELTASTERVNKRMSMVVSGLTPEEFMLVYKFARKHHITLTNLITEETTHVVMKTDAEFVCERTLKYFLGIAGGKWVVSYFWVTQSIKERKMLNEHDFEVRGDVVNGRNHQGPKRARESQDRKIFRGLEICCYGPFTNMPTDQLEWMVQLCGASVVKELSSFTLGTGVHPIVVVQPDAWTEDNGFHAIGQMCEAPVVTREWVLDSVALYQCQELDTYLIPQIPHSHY
CtIP (residues 45-897), human, from pCMV-HA-ns311, sequence (Q99708 45-897 limits assumed): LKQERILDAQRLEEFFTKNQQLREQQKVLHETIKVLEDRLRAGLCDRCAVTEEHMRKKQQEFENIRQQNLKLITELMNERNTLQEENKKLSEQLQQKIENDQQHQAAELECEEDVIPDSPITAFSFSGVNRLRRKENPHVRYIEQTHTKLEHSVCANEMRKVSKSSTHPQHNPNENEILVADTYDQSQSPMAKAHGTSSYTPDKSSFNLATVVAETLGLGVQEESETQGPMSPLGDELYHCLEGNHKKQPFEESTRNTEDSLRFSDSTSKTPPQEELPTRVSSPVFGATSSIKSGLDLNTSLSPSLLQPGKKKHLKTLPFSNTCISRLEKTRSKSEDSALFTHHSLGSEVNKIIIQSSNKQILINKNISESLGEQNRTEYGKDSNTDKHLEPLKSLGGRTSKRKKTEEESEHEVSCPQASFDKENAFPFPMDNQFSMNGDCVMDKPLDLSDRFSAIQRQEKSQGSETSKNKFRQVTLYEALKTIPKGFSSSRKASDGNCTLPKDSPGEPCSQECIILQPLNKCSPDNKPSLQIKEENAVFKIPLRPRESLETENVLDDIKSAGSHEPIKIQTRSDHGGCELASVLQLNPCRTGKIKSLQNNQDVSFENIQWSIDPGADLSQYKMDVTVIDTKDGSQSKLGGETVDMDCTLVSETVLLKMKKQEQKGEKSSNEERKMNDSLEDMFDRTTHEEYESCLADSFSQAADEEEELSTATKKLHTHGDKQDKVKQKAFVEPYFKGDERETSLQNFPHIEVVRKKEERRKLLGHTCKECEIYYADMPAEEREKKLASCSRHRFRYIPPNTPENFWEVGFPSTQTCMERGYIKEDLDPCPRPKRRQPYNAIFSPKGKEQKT
HA-CtIP (281-620), sequence (Q99708 281-620 limits assumed): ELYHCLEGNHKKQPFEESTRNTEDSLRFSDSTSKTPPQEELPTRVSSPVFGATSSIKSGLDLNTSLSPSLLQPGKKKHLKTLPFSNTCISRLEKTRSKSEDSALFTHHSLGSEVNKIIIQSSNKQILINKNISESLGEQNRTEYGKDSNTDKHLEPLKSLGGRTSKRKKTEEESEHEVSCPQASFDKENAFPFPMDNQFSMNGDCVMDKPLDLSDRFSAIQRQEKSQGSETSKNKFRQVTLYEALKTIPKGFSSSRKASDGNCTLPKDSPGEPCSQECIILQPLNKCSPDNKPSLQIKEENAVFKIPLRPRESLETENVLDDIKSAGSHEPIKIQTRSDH
T1 sequence (Q99708 59-320 limits assumed): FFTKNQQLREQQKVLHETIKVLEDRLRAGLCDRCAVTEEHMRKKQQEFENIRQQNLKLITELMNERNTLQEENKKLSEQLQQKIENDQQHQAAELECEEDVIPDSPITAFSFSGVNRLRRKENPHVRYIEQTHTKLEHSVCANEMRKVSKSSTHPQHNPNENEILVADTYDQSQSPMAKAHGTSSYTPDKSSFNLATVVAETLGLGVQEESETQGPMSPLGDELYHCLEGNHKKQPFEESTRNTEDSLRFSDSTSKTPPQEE
T3 sequence (Q99708 whole entry): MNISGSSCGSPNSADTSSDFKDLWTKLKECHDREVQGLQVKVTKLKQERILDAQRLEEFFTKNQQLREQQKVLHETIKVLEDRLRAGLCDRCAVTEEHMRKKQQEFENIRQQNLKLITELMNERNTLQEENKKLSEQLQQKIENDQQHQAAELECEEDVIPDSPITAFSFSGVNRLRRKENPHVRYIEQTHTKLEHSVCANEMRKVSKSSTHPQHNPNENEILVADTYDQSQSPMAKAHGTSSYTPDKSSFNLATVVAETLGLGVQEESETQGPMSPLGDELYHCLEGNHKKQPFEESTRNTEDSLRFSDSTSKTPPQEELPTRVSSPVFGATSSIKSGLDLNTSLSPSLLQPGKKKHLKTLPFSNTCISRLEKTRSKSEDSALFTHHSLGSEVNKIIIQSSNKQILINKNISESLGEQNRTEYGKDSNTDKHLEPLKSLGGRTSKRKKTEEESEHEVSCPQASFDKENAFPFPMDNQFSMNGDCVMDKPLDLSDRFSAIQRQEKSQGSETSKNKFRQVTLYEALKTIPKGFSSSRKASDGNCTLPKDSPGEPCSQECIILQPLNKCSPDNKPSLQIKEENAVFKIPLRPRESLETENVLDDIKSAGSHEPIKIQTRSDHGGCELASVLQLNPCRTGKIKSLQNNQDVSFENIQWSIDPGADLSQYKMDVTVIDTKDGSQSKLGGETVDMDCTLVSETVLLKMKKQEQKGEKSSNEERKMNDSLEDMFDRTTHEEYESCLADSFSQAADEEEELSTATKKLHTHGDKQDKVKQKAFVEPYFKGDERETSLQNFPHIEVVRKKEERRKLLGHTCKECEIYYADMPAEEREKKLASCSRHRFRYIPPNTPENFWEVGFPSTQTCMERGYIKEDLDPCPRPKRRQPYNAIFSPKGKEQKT

B1: Flag-tagged LMO4 (full-length) (other, UniProt P61968 1-165, looked up, not shown: small tags and cut ends)
chain: MVNPGSSSQPPPVTAGSLSWKRCAGCGGKIADRFLLYAMDSYWHSRCLKCSCCQAQLGDIGTSCYTKSGMILCRNDYIRLFGNSGACSACGQSIPASELVMRAQGNVYHLKCFTCSTCRNRLVPGDRFHYINGSLFCEHDRPTALINGHLNSLQSNPLLPDQKVC
notes: mature; also called Flag-LMO4; LM04
Take B1: in assay [1], the “transcription of the Gal4-CAT reporter gene in 293T cells (CAT ELISA)” value was around 3 fold. The binding result with HA-CtIP (59-320) and with HA-CtIP (281-620) was “no binding” each time.

B2: endogenous LMO4 of human HBL100 breast epithelial cells (other, UniProt P61968 1-165, looked up)
chain: B1 chain
notes: mature; also called native LMO4; 17 kD LMO4 protein
Consider B2, for which the binding result in assay [2] and in assay [3] was “binds” throughout.

B3: GST-LMO4 fusion protein (full-length mouse LMO4 in pGEX-2T) (other, UniProt P61969 1-165, looked up)
chain: B1 chain
notes: mature; Expressed in bacterial strain UT5600, immobilised on glutathione sepharose; not shown: glutathione-S-transferase as encoded by pGEX-2T; linker to LMO4 not described
As for B3, the binding result in assay [4] is “binds”.

B4: Flag-tagged second LIM domain of LMO4 (residues 79-165) (other, UniProt P61968 79-165, looked up, not shown: small tags and cut ends)
chain: RLFGNSGACSACGQSIPASELVMRAQGNVYHLKCFTCSTCRNRLVPGDRFHYINGSLFCEHDRPTALINGHLNSLQSNPLLPDQKVC
notes: also called LIM2
Turning to B4, the binding result in assay [5] is “no binding”.

The values are drawn from patent US20050048528A1 (WALTER AND ELIZA HALL INSTITUTE OF MEDICAL RESEARCH, published 2005).
